The text below walks through data of patent US8969060B2, “Modified glucose dehydrogenase” (Ikeda Food Research Co., Ltd., priority 2011, dated 2015).

B1: K354Q: modified GLD: SEQ ID NO: 1 with substitution K354Q (protein, listed as Aspergillus terreus)
chain: MLGKLSFLSALSLAVAAPLSNSTSAKYDYIVIGGGTSGLAVANRLSEDPNVNVLILEAGGSVWNNPNVTNVDGYGLAFGSDIDWQYQSVNQPYGGNLSQVLRAGKALGGTSTINGMAYTRAEDVQIDAWETIGNTGWTWKNLFPYYRKSENFTVPTKSQTSLGASYEAGAHGHEGPLDVAFTQIESNNLTTYLNRTFQGMGLPWTEDVNGGKMRGFNLYPSTVNLEEYVREDAARAYYWPYKSRPNLHVLLNTFANRIVWDGEAHDGHITASGVEITSRNGTVRVINAEKEVIVSAGALKSPAILELSGIGNPSVLDKHNIPVKVNLPTVGENLQDQVNSHMDASGNTSISGTQAVSYPDVYDVFGDEAESVAKQIRANLKQYAADTAKANGNIMKAADLERLFEVQYDLIFKGRVPIAEVLNYPGSATSVFAEFWALLPFARGSVHIGSSNPAEFPVINPNYFMLDWDAKSYVAVAKYIRRSFESYPLSSIVKESTPGYDVIPRNASEQSWKEWVFDKNYRSNFHPVGTAAMMPREIGGVVDERLNVYGTTNVRVVDASVLPFQVCGHLVSTLYAVAERAADLIKADAGRR
modifications: SIGNAL (1)..(19)
B2: Y424T: modified GLD: SEQ ID NO: 1 with substitution Y424T (protein, listed as Aspergillus terreus)
chain: B1 chain with Q354K, Y424T
modifications: SIGNAL (1)..(19)
B3: K354R: modified GLD: SEQ ID NO: 1 with substitution K354R (protein, listed as Aspergillus terreus)
chain: B1 chain with Q354R
modifications: SIGNAL (1)..(19)
B4: Y424K: modified GLD: SEQ ID NO: 1 with substitution Y424K (protein, listed as Aspergillus terreus)
chain: B1 chain with Q354K, Y424K
modifications: SIGNAL (1)..(19)
B5: G352D: modified GLD: SEQ ID NO: 1 with substitution G352D (protein, listed as Aspergillus terreus)
chain: B1 chain with G352D, Q354K
modifications: SIGNAL (1)..(19)
B6: Y424R: modified GLD: SEQ ID NO: 1 with substitution Y424R (protein, listed as Aspergillus terreus)
chain: B1 chain with Q354K, Y424R
modifications: SIGNAL (1)..(19)
B7: G426E: modified GLD: SEQ ID NO: 1 with substitution G426E (protein, listed as Aspergillus terreus)
chain: B1 chain with Q354K, G426E
modifications: SIGNAL (1)..(19)
B8: Y424V: modified GLD: SEQ ID NO: 1 with substitution Y424V (protein, listed as Aspergillus terreus)
chain: B1 chain with Q354K, Y424V
modifications: SIGNAL (1)..(19)
B9: G352C: modified GLD: SEQ ID NO: 1 with substitution G352C (protein, listed as Aspergillus terreus)
chain: B1 chain with G352C, Q354K
modifications: SIGNAL (1)..(19)
B10: Y424S: modified GLD: SEQ ID NO: 1 with substitution Y424S (protein, listed as Aspergillus terreus)
chain: B1 chain with Q354K, Y424S
modifications: SIGNAL (1)..(19)
B11: Y424D: modified GLD: SEQ ID NO: 1 with substitution Y424D (protein, listed as Aspergillus terreus)
chain: B1 chain with Q354K, Y424D
modifications: SIGNAL (1)..(19)
B12: K354Y: modified GLD: SEQ ID NO: 1 with substitution K354Y (protein, listed as Aspergillus terreus)
chain: B1 chain with Q354Y
modifications: SIGNAL (1)..(19)
B13: G352A: modified GLD: SEQ ID NO: 1 with substitution G352A (protein, listed as Aspergillus terreus)
chain: B1 chain with G352A, Q354K
modifications: SIGNAL (1)..(19)
B14: K354S: modified GLD: SEQ ID NO: 1 with substitution K354S (protein, listed as Aspergillus terreus)
chain: B1 chain with Q354S
modifications: SIGNAL (1)..(19)
B15: Y424Q: modified GLD: SEQ ID NO: 1 with substitution Y424Q (protein, listed as Aspergillus terreus)
chain: B1 chain with Q354K, Y424Q
modifications: SIGNAL (1)..(19)
B16: Y424C: modified GLD: SEQ ID NO: 1 with substitution Y424C (protein, listed as Aspergillus terreus)
chain: B1 chain with Q354K, Y424C
modifications: SIGNAL (1)..(19)
B17: Y424N: modified GLD: SEQ ID NO: 1 with substitution Y424N (protein, listed as Aspergillus terreus)
chain: B1 chain with Q354K, Y424N
modifications: SIGNAL (1)..(19)
B18: Y424E: modified GLD: SEQ ID NO: 1 with substitution Y424E (protein, listed as Aspergillus terreus)
chain: B1 chain with Q354K, Y424E
modifications: SIGNAL (1)..(19)

Changes are numbered by the printed parent chain. Names and notes keep the numbering of the source.

The first data set in a line: Relative enzymatic activity of GLD (DCIP/1-m-PMS, plate reader, yeast culture supernatant) with proflavin hydrochloride present. The format is biochemical. As to conditions: site-specific mutants, inhibitor final concentration 1 mM. In short, it runs like this: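 Culture supernatant diluted and mixed with reagent of phosphate buffer pH 7.0, 1.0 M D-glucose, 3 mM DCIP, 3 mM 1-m-PMS and methanol (0.1:1:0.14:0.2:0.06). DCIP absorbance decrease at 600 nm followed; proflavin hydrochloride in methanol replaced methanol at 1 mM final. Activity expressed as % of inhibitor-free blank.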
In the case of B1, the “Relative Activity [%] Proflavin hydrochloride” value came out at 12.5%.
Consider B2, for which the “Relative Activity [%] Proflavin hydrochloride” value was 43.4%.
The same measure, in the same setting: next, B3: 12.6%; B4: 52.5%.
With B5, the “Relative Activity [%] Proflavin hydrochloride” value is given as 42.7%.
On the same count and under the same terms, in the case of B6 it was 55.6%; in that of B7, 32.6%; in that of B8, 46.7%.
On to B9, for which the “Relative Activity [%] Proflavin hydrochloride” value is 43.8%.
Regarding B10, the “Relative Activity [%] Proflavin hydrochloride” value turned out to be 61.0%.
The same measure, in the same setting: in the case of B11 it was 37.2%.
The same measure, in the same setting: next, B12: 15.1%.
As for B13, the “Relative Activity [%] Proflavin hydrochloride” value is given as 47.9%.
Same read-out and setting: in the case of B14 it was 21.3%.
Still for that read-out and setting: next, B15: 50.2%; B16: 45.9%.
Take B17: the “Relative Activity [%] Proflavin hydrochloride” value was found to be 55.6%.
Consider B18, for which the “Relative Activity [%] Proflavin hydrochloride” value is 37.1%.

The next data set is described as follows: Relative enzymatic activity of GLD (DCIP/1-m-PMS, plate reader, yeast culture supernatant) with 1,10-phenanthroline present. The format is biochemical. As to conditions: site-specific mutants, inhibitor final concentration 1 mM. In short, it runs like this: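 Inhibitor at 1 mM final substitutes for the methanol in the reagent, and the sample rate is expressed as % of the inhibitor-free blank. Rates come from ΔA600/min of DCIP with glucose and 1-m-PMS at pH 7.0, using supernatants of YPD-grown yeast clones (24 h, 30° C.).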
B1: the “Relative Activity [%] 1,10-Phenanthroline” value was 71.4%.
In the case of B2, the “Relative Activity [%] 1,10-Phenanthroline” value is reported as 71.2%.
Same read-out and setting: in the case of B3 it was 64.4%.
On the same count and under the same terms, in the case of B4 it was 71.9%.
On to B5, for which the “Relative Activity [%] 1,10-Phenanthroline” value is 87.8%.
As to B6, the “Relative Activity [%] 1,10-Phenanthroline” value amounted to 70.3%.
For the molecule B7, the “Relative Activity [%] 1,10-Phenanthroline” value is on record as 64.4%.
The same measure, in the same setting: next, B8: 49.1%.
Regarding B9, the “Relative Activity [%] 1,10-Phenanthroline” value came to 86.2%.
On the same count and under the same terms, next, B10: 81.4%; B11: 87.1%; B12: 56.0%.
The same measure, in the same setting: in the case of B13 it was 76.1%.
Take B14: the “Relative Activity [%] 1,10-Phenanthroline” value is 71.6%.
On to B15, for which the “Relative Activity [%] 1,10-Phenanthroline” value is 80.2%.
On the same count and under the same terms, next, B16: 73.7%; B17: 89.9%; B18: 87.5%.
